Results as given in the nanobody polyreactivity screen of Harvey et al. (2022).

assay: yeast display, Sf9 membrane polyspecificity reagent, FACS + sequencing; frameworks hold sequencing errors
How it was run: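 In a synthetic yeast display library (Saccharomyces cerevisiae BJ5465), nanobody expression was induced with galactose for 36–48 hours. FACS gates were set low and high (top ~1%) using anti-HA fluorescence for expression and streptavidin fluorescence for binding of the Sf9 membrane reagent. Each polyreactivity label is drawn from the gate of origin.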

| Sequence | polyreactivity (PSR sort gate) |
| --- | --- |
| QVQLVESGGGLVQAGGSLRLSCAASGRTFTGYNMGWYRQEPGKEREFVAAISSNGGRTYYADSVKGRFTISRDNAKNTVYLQMNSLKPEDTAVYYCAAPFTFWGQGTQVTVSS | high polyreactivity |
| QVQLVESGGGLVQAGGSLRLSCAASGRTFTGYVMGWYRQAPGKERELVAVIRYRGGGSYYADSVKGRFTISRDNAKNTVYLQMNSLKPEDTAVYYCARKRVYFGLWMYYWGHGTQVTVSS | high polyreactivity |
| QVQLVESGGGLVQAGGSLRLSCAASGRTFTIYARGWYRHAPGKERELVAAISSGSRTYYADSVKGRFTISRDNAKNTVYLQMNSLKPEDTAVYYCAASLTRHGYYRLFDYWGQGTQVTVSS | high polyreactivity |
| QVQLVESGGGLVQAGGSLRLSCAASGRTFTPYAMGWYRQAPGKERELVATISGGGSTHYADSVKGRFTISRDNAKNTVYIQRNSLKPEDTAVYYCSPSRDTVGRGPIQRDYWGQGTQVTVSS | low polyreactivity |
| QVQLVESGGGLVQAGGSLRLSCAASGRTFTPYAMGWYRQAPGKERELVATISSGTSTNYADSVKGRFTISRDNAKNTVYLQMNSLKPEDTAVYYCAADGYTYKFDYWGQGTQVTVSS | low polyreactivity |
| QVQLVESGGGLVQAGGSLRLSCAASGRTFTQNAMGWYRQATGKERELVASISSSGSTYADSVKGRFTISRDNAKNTVYLQMISLKPEDTAVNYCNAVGFQANDYNYWGQGTQVTVSS | low polyreactivity |
| QVQLVESGGGLVQAGGSLRLSCAASGRTFTRIAMGWYRPAPGKERELVAAIRWRGGGSTYYADSVKGRFTISRDNAKNTVYLQMNSLKPEDTAVYYCNARRYTGTGSAWYYYWGQGTQVTVSS | high polyreactivity |
| QVQLVESGGGLVQAGGSLRLSCAASGRTFTRYAMGWYRQAPGKERELVAAISVRAGITYYADSVKGRFTISRDNAKNTVYLQMNSLKPEDTAVYYCAAKDGRSYYDRTPMVYFGQGTQVTVSS | low polyreactivity |
| QVQLVESGGGLVQAGGSLRLSCAASGRTFTRYAMGWYRQAPGKERELVAAITIGDTTNYADSVKGRFTISRDNAKNTVYLQMNSLKPEDTAVYYCAAYVPRWSSYRRGGYWGQGTQVTVSS | high polyreactivity |
| QVQLVESGGGLVQAGGSLRLSCAASGRTFTRYPMGWYRQAPGKERELVAAITRGGSTYADSVKGRFTISRDNAKNTVYLQMNSLKPEDTAVYYCAAYWGFYPWRAYPYDYWGQGTQVTVSS | high polyreactivity |
| QVQLVESGGGLVQAGGSLRLSCAASGRTFTRYSMGWYRQAPGKERELVAAISRSGGSTYYADSVKGRFTISRDNAKNTVYLQMNSLKPEDTAVYYCAADVYRDLAYDYWGQGTQVTVSS | high polyreactivity |
| QVQLVESGGGLVQAGGSLRLSCAASGRTFTRYTMGWYRQAAGKERELVAAISYSGGSTYYADSVKGRFTISRDNAKNTVYLQMNSLKPEDTAVYYCAAASVRWPGYDYWGQGTQVTVSS | high polyreactivity |
| QVQLVESGGGLVQAGGSLRLSCAASGRTFTSYAMGWYRQAPGKERELVAAISQGGGRTYYADSVKGRFTISRDNAKNTVYLQMNSLKPEDTAVYYCNARSLYPWRWKKEYGHWGQGTQVTVSS | high polyreactivity |
| QVQLVESGGGLVQAGGSLRLSCAASGRTFTSYAMGWYRQAPGKERELVATISWSGGSTYYADSVKGRFTISRDNAKNTVYLQMNSLKPEDTAVYYCAALKPWTTGYGDRFDYWGQGTQVTVSS | low polyreactivity |
| QVQLVESGGGLVQAGGSLRLSCAASGRTFTTNAMGWYRQAPGKERELVAAITSTTRTYYADSVKGRFTISRDNAKNTVYLQMNSLKPEDTAVYFCAARYPTPWGYYYWGQGTQVTVSS | high polyreactivity |
| QVQLVESGGGLVQAGGSLRLSCAASGRTFTTNTMGWYRQAPGKERELVAGIRWSGSRTYYADSVKGRFTISRDNAKITVFLQMNSLKPEDSAVYYCAVGRRSDAPLYVYRFDYWGQGTQVTVSS | low polyreactivity |
